Ends that are not written are not given here. * marks the point of attachment. C18 diacid = O=C(O)CCCCCCCCCCCCCCCCC(=O)*; C16 diacid = O=C(O)CCCCCCCCCCCCCCC(=O)*; C14 diacid = O=C(O)CCCCCCCCCCCCC(=O)*; Palmitoyl = CCCCCCCCCCCCCCCC(=O)*
What was measured:
human GIP receptor [1] = biological target: T1, human GIP receptor (human, UniProt P48546 22-466); assay: IC50 with 2% HSA over IC50 with 0.1% casein, 125I-hGIP competition, COS-7/hGIPR
T1 construct: whole, on cells; also called hGIPR
T1 sequence (looked up): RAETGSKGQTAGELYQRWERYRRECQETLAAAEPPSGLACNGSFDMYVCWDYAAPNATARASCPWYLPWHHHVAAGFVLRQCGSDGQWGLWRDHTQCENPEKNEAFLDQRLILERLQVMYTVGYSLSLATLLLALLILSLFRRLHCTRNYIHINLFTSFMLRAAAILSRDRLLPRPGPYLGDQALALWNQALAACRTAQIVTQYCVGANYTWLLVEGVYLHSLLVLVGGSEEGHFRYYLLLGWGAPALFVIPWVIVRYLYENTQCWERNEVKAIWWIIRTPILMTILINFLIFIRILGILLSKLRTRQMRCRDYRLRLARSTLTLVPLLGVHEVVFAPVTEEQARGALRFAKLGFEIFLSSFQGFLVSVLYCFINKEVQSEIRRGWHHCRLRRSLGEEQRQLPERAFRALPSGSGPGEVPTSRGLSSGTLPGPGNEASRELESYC
Method: (§1) After incubation, the cells were washed twice in ice-cold binding buffer (+/−2% HSA) and lysed using 200 mM NaOH with 1% SDS for 30 min. Nonspecific binding was determined as the binding of radioactive ligand to untransfected cells.

human GIP receptor [2] = biological target: T1, human GIP receptor; assay: 125I-hGIP competition binding, COS-7/hGIPR, 2% HSA;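 further: nonspecific binding defined as radioligand binding to untransfected cells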
Method: as §1

human GIP receptor [3] = biological target: T1, human GIP receptor; assay: 125I-hGIP competition binding, COS-7 cells expressing hGIPR;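 further: nonspecific binding taken as radioligand bound by untransfected cells, binding buffer with or without 2% HSA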
Method: as §1

human GIP receptor [4] = biological target: T1, human GIP receptor; assay: 125I-hGIP competition binding, COS-7/hGIPR, 0.1% casein;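 further: nonspecific binding defined as radioligand binding measured on untransfected cells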
Method: as §1

| Binder | Fold change HSA (2%)/Casein (0.1%) (human GIP receptor [1]) [fold] | IC50 (human GIP receptor [2]) [nM] | logIC50 (human GIP receptor [2]) [log M] | IC50 (human GIP receptor [3]) [nM] | log IC50 (human GIP receptor [3]) [log M] | IC50 (human GIP receptor [4]) [nM] | logIC50 (human GIP receptor [4]) [log M] |
| --- | --- | --- | --- | --- | --- | --- | --- |
| {C18 diacid}-TFISDYSIAMDKIHQQDFVNWLLAQK-NH2 (SMILES CC[C@H](C)[C@H](NC(=O)[C@H](CO)NC(=O)[C@H](Cc1ccc(O)cc1)NC(=O)[C@H](CC(=O)O)NC(=O)[C@H](CO)NC(=O)[C@@H](NC(=O)[C@H](Cc1ccccc1)NC(=O)[C@@H](NC(=O)CCCCCCCCCCCCCCCCC(=O)O)[C@@H](C)O)[C@@H](C)CC)C(=O)N[C@@H](C)C(=O)N[C@@H](CCSC)C(=O)N[C@@H](CC(=O)O)C(=O)N[C@@H](CCCCN)C(=O)N[C@H](C(=O)N[C@@H](Cc1c[nH]cn1)C(=O)N[C@@H](CCC(N)=O)C(=O)N[C@@H](CCC(N)=O)C(=O)N[C@@H](CC(=O)O)C(=O)N[C@@H](Cc1ccccc1)C(=O)N[C@H](C(=O)N[C@@H](CC(N)=O)C(=O)N[C@@H](Cc1c[nH]c2ccccc12)C(=O)N[C@@H](CC(C)C)C(=O)N[C@@H](CC(C)C)C(=O)N[C@@H](C)C(=O)N[C@@H](CCC(N)=O)C(=O)N[C@@H](CCCCN)C(N)=O)C(C)C)[C@@H](C)CC) [AT138 [hGIP(5-30)NH2-C18diacid/5]] | 3.8 | 10100 | -5 | 2640 | -5.6 | 2640 | -5.6 |
| TFISDYSIAMDK(C14 diacid)IHQQDFVNWLLAQK-NH2 (N-terminus assumed; SMILES CC[C@H](C)[C@H](NC(=O)[C@H](CO)NC(=O)[C@H](Cc1ccc(O)cc1)NC(=O)[C@H](CC(=O)O)NC(=O)[C@H](CO)NC(=O)[C@@H](NC(=O)[C@H](Cc1ccccc1)NC(=O)[C@@H](N)[C@@H](C)O)[C@@H](C)CC)C(=O)N[C@@H](C)C(=O)N[C@@H](CCSC)C(=O)N[C@@H](CC(=O)O)C(=O)N[C@@H](CCCCNC(=O)CCCCCCCCCCCCC(=O)O)C(=O)N[C@H](C(=O)N[C@@H](Cc1c[nH]cn1)C(=O)N[C@@H](CCC(N)=O)C(=O)N[C@@H](CCC(N)=O)C(=O)N[C@@H](CC(=O)O)C(=O)N[C@@H](Cc1ccccc1)C(=O)N[C@H](C(=O)N[C@@H](CC(N)=O)C(=O)N[C@@H](Cc1c[nH]c2ccccc12)C(=O)N[C@@H](CC(C)C)C(=O)N[C@@H](CC(C)C)C(=O)N[C@@H](C)C(=O)N[C@@H](CCC(N)=O)C(=O)N[C@@H](CCCCN)C(N)=O)C(C)C)[C@@H](C)CC) [AT139 [hGIP(5-30)NH2-C14diacid/16]] | 2.6 | 401 | -6.4 | 153 | -6.8 | 153 | -6.8 |
| TFISDYSIAMDRIK(Palmitoyl)QQDFVNWLLAQR-NH2 (N-terminus assumed; SMILES CCCCCCCCCCCCCCCC(=O)NCCCC[C@H](NC(=O)[C@@H](NC(=O)[C@H](CCCNC(=N)N)NC(=O)[C@H](CC(=O)O)NC(=O)[C@H](CCSC)NC(=O)[C@H](C)NC(=O)[C@@H](NC(=O)[C@H](CO)NC(=O)[C@H](Cc1ccc(O)cc1)NC(=O)[C@H](CC(=O)O)NC(=O)[C@H](CO)NC(=O)[C@@H](NC(=O)[C@H](Cc1ccccc1)NC(=O)[C@@H](N)[C@@H](C)O)[C@@H](C)CC)[C@@H](C)CC)[C@@H](C)CC)C(=O)N[C@@H](CCC(N)=O)C(=O)N[C@@H](CCC(N)=O)C(=O)N[C@@H](CC(=O)O)C(=O)N[C@@H](Cc1ccccc1)C(=O)N[C@H](C(=O)N[C@@H](CC(N)=O)C(=O)N[C@@H](Cc1c[nH]c2ccccc12)C(=O)N[C@@H](CC(C)C)C(=O)N[C@@H](CC(C)C)C(=O)N[C@@H](C)C(=O)N[C@@H](CCC(N)=O)C(=O)N[C@@H](CCCNC(=N)N)C(N)=O)C(C)C) [AT134 [hGIP(5-30)NH2[K16R; H18K; K30R]-C16/18]] | 5.5 | 4890 | -5.3 | 882 | -6.1 | 882 | -6.1 |
| Palmitoyl-TFISDYSIAMDRIHQQDFVNWLLAQR-NH2 (SMILES CCCCCCCCCCCCCCCC(=O)N[C@H](C(=O)N[C@@H](Cc1ccccc1)C(=O)N[C@H](C(=O)N[C@@H](CO)C(=O)N[C@@H](CC(=O)O)C(=O)N[C@@H](Cc1ccc(O)cc1)C(=O)N[C@@H](CO)C(=O)N[C@H](C(=O)N[C@@H](C)C(=O)N[C@@H](CCSC)C(=O)N[C@@H](CC(=O)O)C(=O)N[C@@H](CCCNC(=N)N)C(=O)N[C@H](C(=O)N[C@@H](Cc1c[nH]cn1)C(=O)N[C@@H](CCC(N)=O)C(=O)N[C@@H](CCC(N)=O)C(=O)N[C@@H](CC(=O)O)C(=O)N[C@@H](Cc1ccccc1)C(=O)N[C@H](C(=O)N[C@@H](CC(N)=O)C(=O)N[C@@H](Cc1c[nH]c2ccccc12)C(=O)N[C@@H](CC(C)C)C(=O)N[C@@H](CC(C)C)C(=O)N[C@@H](C)C(=O)N[C@@H](CCC(N)=O)C(=O)N[C@@H](CCCNC(=N)N)C(N)=O)C(C)C)[C@@H](C)CC)[C@@H](C)CC)[C@@H](C)CC)[C@@H](C)O) [AT135 [hGIP(5-30)NH2[K16R; K30R]-C16/5]] | 0.2 | 977 | -6 | 5940 | -5.2 | 5940 | -5.2 |
| {C16 diacid}-TFISDYSIAMDKIHQQDFVNWLLAQK-NH2 (SMILES CC[C@H](C)[C@H](NC(=O)[C@H](CO)NC(=O)[C@H](Cc1ccc(O)cc1)NC(=O)[C@H](CC(=O)O)NC(=O)[C@H](CO)NC(=O)[C@@H](NC(=O)[C@H](Cc1ccccc1)NC(=O)[C@@H](NC(=O)CCCCCCCCCCCCCCC(=O)O)[C@@H](C)O)[C@@H](C)CC)C(=O)N[C@@H](C)C(=O)N[C@@H](CCSC)C(=O)N[C@@H](CC(=O)O)C(=O)N[C@@H](CCCCN)C(=O)N[C@H](C(=O)N[C@@H](Cc1c[nH]cn1)C(=O)N[C@@H](CCC(N)=O)C(=O)N[C@@H](CCC(N)=O)C(=O)N[C@@H](CC(=O)O)C(=O)N[C@@H](Cc1ccccc1)C(=O)N[C@H](C(=O)N[C@@H](CC(N)=O)C(=O)N[C@@H](Cc1c[nH]c2ccccc12)C(=O)N[C@@H](CC(C)C)C(=O)N[C@@H](CC(C)C)C(=O)N[C@@H](C)C(=O)N[C@@H](CCC(N)=O)C(=O)N[C@@H](CCCCN)C(N)=O)C(C)C)[C@@H](C)CC) [AT137 [hGIP(5-30)NH2-C16diacid/5]] | 1.9 | 555 | -6.3 | 286 | -6.5 | 286 | -6.5 |
| {C14 diacid}-TFISDYSIAMDKIHQQDFVNWLLAQK-NH2 (SMILES CC[C@H](C)[C@H](NC(=O)[C@H](CO)NC(=O)[C@H](Cc1ccc(O)cc1)NC(=O)[C@H](CC(=O)O)NC(=O)[C@H](CO)NC(=O)[C@@H](NC(=O)[C@H](Cc1ccccc1)NC(=O)[C@@H](NC(=O)CCCCCCCCCCCCC(=O)O)[C@@H](C)O)[C@@H](C)CC)C(=O)N[C@@H](C)C(=O)N[C@@H](CCSC)C(=O)N[C@@H](CC(=O)O)C(=O)N[C@@H](CCCCN)C(=O)N[C@H](C(=O)N[C@@H](Cc1c[nH]cn1)C(=O)N[C@@H](CCC(N)=O)C(=O)N[C@@H](CCC(N)=O)C(=O)N[C@@H](CC(=O)O)C(=O)N[C@@H](Cc1ccccc1)C(=O)N[C@H](C(=O)N[C@@H](CC(N)=O)C(=O)N[C@@H](Cc1c[nH]c2ccccc12)C(=O)N[C@@H](CC(C)C)C(=O)N[C@@H](CC(C)C)C(=O)N[C@@H](C)C(=O)N[C@@H](CCC(N)=O)C(=O)N[C@@H](CCCCN)C(N)=O)C(C)C)[C@@H](C)CC) [AT136 [hGIP(5-30)NH2-C14diacid/5]] | 15.7 | 713 | -6.1 | 45.4 | -7.3 | 45 | -7.3 |
